Reference: patent US20180120314

Legend:
[1] = molecular target: T1, Methyl Red (MR)-AAPV-NBD-UBI29-41
T1 chain: AAPVKTGRAKRRMQYNRR

B1: human neutrophil elastase (HNE) (protein)
chain: IVGGRRARPHAWPFMVSLQLRGGHFCGATLIAPNFVMSAAHCVANVNVRAVRVVLGAHNLSRREPTRQVFAVQRIFENGYDPVNLLNDIVILQLNGSATINANVQVAQLPAQGRRLGNGVQCLAMGWGLLGRNRGIASVLQELNVTVVTSLCRRSNVCTLVRGRQAGVCFGDSGSPLVCNGLIHGIASFVRGGCASGLYPDAFAPVAQFVNWIDSIIQ
For B1, the “bacterial labelling (NBD fluorescence, confocal microscopy) after cleavage of the probe in a co-culture of bacteria and neutrophils” value [1] was “These images confirm the ability of the probe to be cleaved by neutrophil derived HNE and to label bacteria”, the “bacterial labelling by NBD fluorescence (confocal microscopy) after cleavage of the probe” value (TAMRA-AAPV-NBD-PMX) was “Once the probe has been cleaved by elastase, the bacteria are labelled by the probe element due to the fluorescence of NBD” and the “fluorescence of the cleaved TAMRA compound (spectrophotometer, ex 525 nm, Em 580 nm)” value (TAMRA-AAPV-NBD-PMX) was “the fluorescence of the cleaved TAMRA compound increases in an elastase dependent manner and are inhibited with an elastase inhibitor such as sivelestat”.
